Assay results: patent US20120316071A1 (published 2012)

Molecular target: T1, Recombinant Human DLL4 (delta-like protein 4) (human, UniProt Q9NR61 27-524)
T1 construct: Bought recombinant human DLL4 (R&D Systems Cat#1506-D4/CF); also called rHuman DLL4
Test: ECL (MSD) multispot binding assay, antigen spotted on plate, Fab in solution;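 note: purified Fab incubated 1 h at 20 °C, detected via TAG-labelled antibody electrochemiluminescence, antigen spot compared with the blank in the same well, ratio at least 4 counted as hit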
Procedure: An 150 μl aliquot of 1% Bovine Serum Albumin (BSA) in Tris-buffered Saline Tween (TBST) was added to each well and allowed to incubate for 30 min at 20° C. followed by washing and tap drying to completely remove any residual solution. Subsequently, a 12.5 μl aliquot of 1% BSA TBST was added to each well followed by the addition of a 12.5 μl aliquot of a purified Fab. The plate was sealed and incubated for 1 hour at 20° C. with shaking
TAG-detection antibody at 25 μl was added to each well and allowed to incubate for 1 hour at 20° C. with shaking. Finally, 15 μl of Read Buffer P with Surfactant (Cat # R92PC-1, Meso Scale Discovery) was added to each well. The electrochemiluminescence was measured using a Sector Imager 2400 (Meso Scale Discovery). Data was analyzed by comparing the ECL signals for an antigen to the blank of each well. A signal to blank ratio of 4 or more was considered a “Hit” Fab.

| Signal/Blank | ECL signal | Binder |
| --- | --- | --- |
| 389 | – | Fab VH1-46_IGHD6-6*01_IGHJ1*01 S102A/S103P/S104F/H111F (APFF) & L6_IGKJ1*01 (Fab, V domains shown, Fab made in E. coli; The constant parts (CH1 with His6 and Flag tags from plasmid A, kappa CL from plasmid C) are not added here; also called H:APFF & L:wt; APFF & parent) VH: QVQLVQSGAEVKKPGASVKVSCKASGYTFTSYYMHWVRQAPGQGLEWMGIINPSGGSTSYAQKFQGRVTMTRDTSTSTVYMELSSLRSEDTAVYYCAREEYAPFSAEYFQFWGQGTLVTVSS VL: not shown |
| 602 | 197000 | Fab VH1-46_IGHD6-6*01_IGHJ1*01 S102A/S103P/S104F/H111F (APFF) & L6_IGKJ1*01 S30Q (Fab, V domains shown, Fab made in E. coli; The constant parts (CH1 with His6 and Flag tags from plasmid A, kappa CL from plasmid C) are not added here; also called APFF & S30Q) VH: QVQLVQSGAEVKKPGASVKVSCKASGYTFTSYYMHWVRQAPGQGLEWMGIINPSGGSTSYAQKFQGRVTMTRDTSTSTVYMELSSLRSEDTAVYYCAREEYAPFSAEYFQFWGQGTLVTVSS VL: EIVLTQSPATLSLSPGERATLSCRASQSVQSYLAWYQQKPGQAPRLLIYDASNRATGIPARFSGSGSGTDFTLTISSLEPEDFAVYYCQQRSNWPPWTFGQGTKVEIKR |
| 506 | 178000 | Fab VH1-46_IGHD6-6*01_IGHJ1*01 S102A/S103P/S104F/H111F (APFF) & L6_IGKJ1*01 S30G (Fab, V domains shown, Fab made in E. coli; The constant parts (CH1 with His6 and Flag tags from plasmid A, kappa CL from plasmid C) are not added here; also called APFF & S30G) VH: QVQLVQSGAEVKKPGASVKVSCKASGYTFTSYYMHWVRQAPGQGLEWMGIINPSGGSTSYAQKFQGRVTMTRDTSTSTVYMELSSLRSEDTAVYYCAREEYAPFSAEYFQFWGQGTLVTVSS VL: EIVLTQSPATLSLSPGERATLSCRASQSVGSYLAWYQQKPGQAPRLLIYDASNRATGIPARFSGSGSGTDFTLTISSLEPEDFAVYYCQQRSNWPPWTFGQGTKVEIKR |
| 4.2 | 1260 | Fab VH1-46_IGHD6-6*01_IGHJ1*01 S102A/S103P/S104F/H111F (APFF) & L6_IGKJ1*01 S30P (Fab, V domains shown, Fab made in E. coli; The constant parts (CH1 with His6 and Flag tags from plasmid A, kappa CL from plasmid C) are not added here; also called APFF & S30P) VH: QVQLVQSGAEVKKPGASVKVSCKASGYTFTSYYMHWVRQAPGQGLEWMGIINPSGGSTSYAQKFQGRVTMTRDTSTSTVYMELSSLRSEDTAVYYCAREEYAPFSAEYFQFWGQGTLVTVSS VL: EIVLTQSPATLSLSPGERATLSCRASQSVPSYLAWYQQKPGQAPRLLIYDASNRATGIPARFSGSGSGTDFTLTISSLEPEDFAVYYCQQRSNWPPWTFGQGTKVEIKR |
| 1010 | 187000 | Fab VH1-46_IGHD6-6*01_IGHJ1*01 S102A/S103P/S104F/H111F (APFF) & L6_IGKJ1*01 S30A (Fab, V domains shown, Fab made in E. coli; The constant parts (CH1 with His6 and Flag tags from plasmid A, kappa CL from plasmid C) are not added here; also called APFF & S30A) VH: QVQLVQSGAEVKKPGASVKVSCKASGYTFTSYYMHWVRQAPGQGLEWMGIINPSGGSTSYAQKFQGRVTMTRDTSTSTVYMELSSLRSEDTAVYYCAREEYAPFSAEYFQFWGQGTLVTVSS VL: EIVLTQSPATLSLSPGERATLSCRASQSVASYLAWYQQKPGQAPRLLIYDASNRATGIPARFSGSGSGTDFTLTISSLEPEDFAVYYCQQRSNWPPWTFGQGTKVEIKR |
| 682 | 189000 | Fab VH1-46_IGHD6-6*01_IGHJ1*01 S102A/S103P/S104F/H111F (APFF) & L6_IGKJ1*01 S30R (Fab, V domains shown, Fab made in E. coli; The constant parts (CH1 with His6 and Flag tags from plasmid A, kappa CL from plasmid C) are not added here; also called APFF & S30R) VH: QVQLVQSGAEVKKPGASVKVSCKASGYTFTSYYMHWVRQAPGQGLEWMGIINPSGGSTSYAQKFQGRVTMTRDTSTSTVYMELSSLRSEDTAVYYCAREEYAPFSAEYFQFWGQGTLVTVSS VL: EIVLTQSPATLSLSPGERATLSCRASQSVRSYLAWYQQKPGQAPRLLIYDASNRATGIPARFSGSGSGTDFTLTISSLEPEDFAVYYCQQRSNWPPWTFGQGTKVEIKR |
| 348 | 136000 | Fab VH1-46_IGHD6-6*01_IGHJ1*01 S102A/S103P/S104F/H111F (APFF) & L6_IGKJ1*01 S30T (Fab, V domains shown, Fab made in E. coli; The constant parts (CH1 with His6 and Flag tags from plasmid A, kappa CL from plasmid C) are not added here; also called APFF & S30T) VH: QVQLVQSGAEVKKPGASVKVSCKASGYTFTSYYMHWVRQAPGQGLEWMGIINPSGGSTSYAQKFQGRVTMTRDTSTSTVYMELSSLRSEDTAVYYCAREEYAPFSAEYFQFWGQGTLVTVSS VL: EIVLTQSPATLSLSPGERATLSCRASQSVTSYLAWYQQKPGQAPRLLIYDASNRATGIPARFSGSGSGTDFTLTISSLEPEDFAVYYCQQRSNWPPWTFGQGTKVEIKR |
| 497 | 175000 | Fab VH1-46_IGHD6-6*01_IGHJ1*01 S102A/S103P/S104F/H111F (APFF) & L6_IGKJ1*01 S30N (Fab, V domains shown, Fab made in E. coli; The constant parts (CH1 with His6 and Flag tags from plasmid A, kappa CL from plasmid C) are not added here; also called APFF & S30N) VH: QVQLVQSGAEVKKPGASVKVSCKASGYTFTSYYMHWVRQAPGQGLEWMGIINPSGGSTSYAQKFQGRVTMTRDTSTSTVYMELSSLRSEDTAVYYCAREEYAPFSAEYFQFWGQGTLVTVSS VL: EIVLTQSPATLSLSPGERATLSCRASQSVNSYLAWYQQKPGQAPRLLIYDASNRATGIPARFSGSGSGTDFTLTISSLEPEDFAVYYCQQRSNWPPWTFGQGTKVEIKR |
